This experiment has as its target T1, His-tagged human HtrA1 protease domain (human, UniProt Q92743 161-367).
T1 construct: His-tagged protease domain; also called huHtrA1-PD-His; huHtrA1-PD
The experiment can be described thus: SPR (BIACORE T200), huHtrA1-PD-His captured by anti-His, Fab injected. As for the experimental part: To determine the binding affinity of selected Fab variants for HtrA1, SPR measurement with a BIACORE™ T200 instrument was performed. Briefly, a series S sensor chip CM5 was activated with 1-EDC and NHS reagents according to the supplier's instructions, and anti-His antibody was coupled to achieve 200-300 response units (RU), then following by blocking un-reacted groups with 1 M ethanolamine. For kinetics measurements, approximately 5 nM of huHtrA1-PD-His was first injected at 10 μl/min flow rate to capture approximately 100 RU at 2 different flow cells (FC), except for FC1 (which served as a reference). Next, 5-fold serial dilutions of Fab in HBS-P buffer (0.01M HEPES pH 7.4, 0.15M NaCl, 0.005% surfactant P20) from low (0.8 nM) to high (50 nM) were injected (flow rate: 30 μl/min). The binding responses on HtrA1 were corrected by subtracting of RU from a blank flow cell. The sensorgram was recorded and subject to reference and buffer subtraction before evaluating by BIACORE® T200 Evaluation Software (version 2.0). Association rates (kₒₙ) and dissociation rates (koff) were calculated using a simple one-to-one Langmuir binding model. The equilibrium dissociation constant (KD) was calculated as the ratio of koff/kₒₙ.

Substitutions are numbered along the chain they refer to. In names and notes the source's numbering stands.

T1 sequence (Q92743 other isoform, or with tags, fused parts or gaps limits assumed): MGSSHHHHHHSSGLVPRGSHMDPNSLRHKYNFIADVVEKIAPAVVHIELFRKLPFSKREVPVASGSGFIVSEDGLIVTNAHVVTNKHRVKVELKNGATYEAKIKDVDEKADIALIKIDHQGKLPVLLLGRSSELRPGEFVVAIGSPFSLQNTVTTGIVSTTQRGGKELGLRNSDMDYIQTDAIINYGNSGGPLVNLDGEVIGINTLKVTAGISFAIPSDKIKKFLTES

B1: h15H6.v2 variant HC1 (HC-T30K) Fab (Fab, V domains shown)
VH: EVQLVQSGAEVKKPGASVKVSCKASGYTFKDSEMHWVRQAPGQGLEWIGGVDPETDGAAYNQKFKGRATITRDTSTSTAYLELSSLRSEDTAVYYCTRGYDYDYALDYWGQGTLVTVSS
VL: DIQMTQSPSSLSASVGDRVTITCRASSSVNFIHWYQQKPGKAPKPLISATSNLASGVPSRFSGSGSGTDFTLTISSLQPEDFATYYCQQWSSNPWTFGQGTKVEIK
notes: Fab-Flag tag fusion from 293T cells
As to B1, the affinity, expressed as Kd, was 0.475 nM; the koff worked out at 0.000165 s⁻¹; the kon was determined as 347000 M⁻¹ s⁻¹.

B2: h15H6.v2 variant HC3 (HC-T28K) Fab (Fab, V domains shown)
VH: B1 VH with T28K, K30T
VL: B1 VL
notes: as for B1
Molecule B2 yielded a dissociation constant Kd of 0.374 nM, a koff of 0.000171 s⁻¹ and a kon of 456000 M⁻¹ s⁻¹.

B3: h15H6.v2 variant HC7 (HC-A58F) Fab (Fab, V domains shown)
VH: B1 VH with K30T, A59F
VL: B1 VL
notes: as for B1
For B3, binding was characterised by a dissociation constant (Kd) of 0.611 nM, the off-rate (koff) turned out to be 0.000165 s⁻¹ and the kon was determined as 271000 M⁻¹ s⁻¹.

B4: h15H6.v2 variant LC5 (LC-N53E) Fab (Fab, V domains shown)
VH: B1 VH with K30T
VL: B1 VL with N52E
notes: as for B1
B4: the dissociation constant Kd was 0.481 nM, the koff is 0.000212 s⁻¹ and the association rate constant (kon) turned out to be 441000 M⁻¹ s⁻¹.

B5: h15H6.v2 variant HC8 (HC-Y100I) Fab (Fab, V domains shown)
VH: B1 VH with K30T, Y104I
VL: B1 VL
notes: as for B1
In turn, B5 displayed a Kd of 0.603 nM, a dissociation rate constant (koff) of 0.000237 s⁻¹ and a kon of 393000 M⁻¹ s⁻¹.

B6: h15H6.v2 variant HC2 (HC-T30R) Fab (Fab, V domains shown)
VH: B1 VH with K30R
VL: B1 VL
notes: as for B1
B6 gave a Kd of 0.449 nM, a koff of 0.000164 s⁻¹ and an on-rate constant (kon) of 366000 M⁻¹ s⁻¹.

B7: h15H6.v2 variant HC6 (HC-E53A) Fab (Fab, V domains shown)
VH: B1 VH with K30T, E54A
VL: B1 VL
notes: as for B1
Consider B7, for which binding was put at a Kd of 2.58 nM, the off-rate constant (koff) came to 0.00026 s⁻¹ and the on-rate (kon) stood at 101000 M⁻¹ s⁻¹.

B8: h15H6.v2 variant LC1 (LC-S29R) Fab (Fab, V domains shown)
VH: B1 VH with K30T
VL: B1 VL with S28R
notes: as for B1
Molecule B8 displayed a dissociation constant (Kd) of 1.55 nM, a koff of 0.000229 s⁻¹ and an on-rate (kon) of 148000 M⁻¹ s⁻¹.

B9: h15H6.v2 variant HC5 (HC-M34L) Fab (Fab, V domains shown)
VH: B1 VH with K30T, M34L
VL: B1 VL
notes: as for B1
B9: the affinity, expressed as Kd, was 0.481 nM; the koff is 0.000246 s⁻¹; the kon came to 511000 M⁻¹ s⁻¹.

B10: h15H6.v2 variant LC2 (LC-N31H) Fab (Fab, V domains shown)
VH: B1 VH with K30T
VL: B1 VL with N30H
notes: as for B1
B10 displayed a Kd of 0.836 nM, a dissociation rate constant (koff) of 0.00019 s⁻¹ and a kon of 228000 M⁻¹ s⁻¹.

B11: h15H6.v2 variant LC4 (LC-N53H) Fab (Fab, V domains shown)
VH: B1 VH with K30T
VL: B1 VL with N52H
notes: as for B1
Regarding B11, binding was characterised by a dissociation constant (Kd) of 0.517 nM, the off-rate constant (koff) stood at 0.000213 s⁻¹ and the association rate constant (kon) was determined as 413000 M⁻¹ s⁻¹.

B12: h15H6.v2 variant HC9 (HC-A100aP) Fab (Fab, V domains shown)
VH: B1 VH with K30T, A105P
VL: B1 VL
notes: as for B1
The molecule B12 displayed a Kd of 0.618 nM, a koff of 0.00021 s⁻¹ and an association rate constant (kon) of 340000 M⁻¹ s⁻¹.

B13: h15H6.v2 variant HC4 (HC-T28R) Fab (Fab, V domains shown)
VH: B1 VH with T28R, K30T
VL: B1 VL
notes: as for B1
Molecule B13 had a Kd of 0.643 nM, an off-rate (koff) of 0.000212 s⁻¹ and an on-rate (kon) of 331000 M⁻¹ s⁻¹.

These data come from patent US20170145113A1 (Genentech, published 2017).
